Paper PMC6497955, “Development and structural characterization of an engineered multi-copper oxidase reporter of protein–protein interactions” (The Journal of Biological Chemistry, 2019)
Residue numbers refer to the chain shown, from its start.

B1: CueO-PM2 (designed binder)
chain: AERPTLPIPDLLTTDARNRIQLTIGAGQSTFGGKTATTWGYNGNLLGPAVKLQRGKAVTVDIYNQLTEETTLHWHGLEVPGEVDGGPQGIIPPGGKRSVTLNVDQPAATCWFHPHQHGKTGRQVAMGLAGLVVIEDDEILKLMLPKQWGIDDVPVIVQDKKFSADGQIDYQLDVMTAAVGWFGDTLLTNGAIYPQHAAPRGWLRLRLLNGCNARSLNFATSDNRPLYVIASDGGLLPEPVKVSELPVLMGERFEVLVEVNDNKPFDLVTLPVSQMGMAIAPFDKPHPVMRIQPIAISASGALPDTLSSLPALPSLEGLTVRKLQLSMDPILDMMGMQMLMEKYGDQAMAGMDHSQMTSFAEYWALLSMNHGGKFDFHHANKINGQAFDMNKPMFAAAKGQYERWVISGVGDMMLHPFHIHGTQFRILSENGKPPAAHRAGWKDTVKVEGNVSEVLVKFNHDAPKEHAYMAHCHLLEHEDTGMMLGFTV
B2: MDM2(6–125) (domain or fragment, UniProt Q00987 6-125, looked up)
chain: MSVPTDGAVTTSQIPASEQETLVRPKPLLLKLLKSVGAQKDTYTMKEVLFYLGQYIMTKRLYDEKQQHIVYCSNDLLGDLFGVPSFSVKEHRKIYTMIYRNLVVVNQQESSDSGTSVSEN

How the values were obtained:
[1] = molecular target: B2; assay: cell-based or functional assay
[2] = molecular target: T1, CueO-12.1 (E. coli, UniProt P36649 29-516, M358I | 12.1 peptide replaced residues 384–394 (translated from primers 9 and …)); assay: fluorescence polarisation; competitive fluorescence anisotropy; CueO proteins titrated against 150 nM MDM2(6–125) and 50 nM FITC-labeled 12.1 peptide; PBS, 3% DMSO, 0.1% Tween 20; apparent Kd; conditions: both partners purified
T1 construct: signal peptide in the construct; source: E. coli BL21(DE3), purified (HisTrap)
T1 sequence (looked up): B1 chain with T357P, S358R, A360M, E361D, A364E, L365G, S367N

[3] = molecular target: T2, CueO-PMI (E. coli, UniProt P36649 29-516, M358I | PMI peptide insert (translated from primers 13 and 14, Table 3: 385-395 …)); assay: as above; conditions: both partners purified
T2 construct: signal peptide in the construct; source: E. coli BL21(DE3), purified (HisTrap)
T2 sequence (looked up): B1 chain with A364N

[4] = molecular target: T3, CueO (M358I) (E. coli, UniProt P36649 29-516, M358I); assay: as above; conditions: both partners purified
T3 construct: signal peptide in the construct (primer 1 begins at the precursor's ATG); E. coli multi-copper oxidase CueO, gene amplified from JM109 genomic DNA with primers 1 and 2; The M358I mutation arose during cloning and is present in all variants; The signal peptide may be cut in E. coli (surmise; the solved variants are modelled from residue 29 or 30); source: E. coli BL21(DE3), purified (HisTrap)
T3 sequence (looked up): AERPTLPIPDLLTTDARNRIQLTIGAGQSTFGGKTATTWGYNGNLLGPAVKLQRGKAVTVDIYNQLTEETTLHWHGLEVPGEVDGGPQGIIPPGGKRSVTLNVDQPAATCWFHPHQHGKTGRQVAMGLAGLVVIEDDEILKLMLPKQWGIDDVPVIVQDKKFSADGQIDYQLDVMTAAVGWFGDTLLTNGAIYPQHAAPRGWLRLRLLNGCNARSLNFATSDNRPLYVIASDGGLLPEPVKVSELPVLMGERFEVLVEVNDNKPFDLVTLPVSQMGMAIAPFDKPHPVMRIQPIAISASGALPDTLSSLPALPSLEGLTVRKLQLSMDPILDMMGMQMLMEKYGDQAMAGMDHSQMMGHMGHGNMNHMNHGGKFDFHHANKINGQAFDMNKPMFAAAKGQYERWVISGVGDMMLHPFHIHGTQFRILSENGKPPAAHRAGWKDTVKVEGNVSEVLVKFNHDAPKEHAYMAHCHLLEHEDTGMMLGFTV

[5] = molecular target: B1; assay: as above; conditions: both partners purified

Binder | kcat of syringaldazine oxidation by CueO-PM2 preincubated with 10 μM MDM2, against CueO-PM2 alone [1] [fold] | Kd [2] [nM] | Kd [3] [nM] | Kd [4] [nM] | Kd [5] [nM]
B1 | ~1.6 |  |  |  | 
B2 |  | 722 | 28 | 44300 | 25
